Here are results for 22 molecules from patent publication US20090208538A1 (ROCKEFELLER UNIVERSITY, published 2009).

B1: cdr2 163-171 ELYDLRQHF (peptide)
peptide: ELYDLRQHF
B2: cdr2 355-363 ALKVKYEEL (peptide)
peptide: ALKVKYEEL
B3: cdr2 209-217 LSLERQKRV (peptide)
peptide: LSLERQKRV
B4: cdr2 317-325 SLAGSDIVK (peptide)
peptide: SLAGSDIVK
B5: cdr2 236-244 QLGATGAYR (peptide)
peptide: QLGATGAYR
B6: cdr2 205-213 LQAQLSLER (peptide)
peptide: LQAQLSLER
B7: cdr2 28-36 LQLAAELGK (peptide)
peptide: LQLAAELGK
B8: cdr2 140-148 GQGRRSPGK (peptide)
peptide: GQGRRSPGK
B9: cdr2 300-308 ESHRKPLKR (peptide)
peptide: ESHRKPLKR
B10: cdr2 172-180 VYDHVFAEK (peptide)
peptide: VYDHVFAEK
B11: cdr2 207-215 AQLSLERQK (peptide)
peptide: AQLSLERQK
B12: cdr2 74-82 RQMNEQHAK (peptide)
peptide: RQMNEQHAK
B13: cdr2 427-435 KEIFSCIKK (peptide)
peptide: KEIFSCIKK
B14: cdr2 379-387 VQTSRAAAK (peptide)
peptide: VQTSRAAAK
B15: cdr2 296-304 LTVPESHRK (peptide)
peptide: LTVPESHRK
B16: cdr2 37-45 TLLDRNTEL (peptide)
peptide: TLLDRNTEL
B17: cdr2 242-250 AYRARALEL (peptide)
peptide: AYRARALEL
B18: cdr2 240-248 TGAYRARAL (peptide)
peptide: TGAYRARAL
B19: cdr2 442-450 EQRTKYRSL (peptide)
peptide: EQRTKYRSL
B20: cdr2 432-440 CIKKTKQEI (peptide)
peptide: CIKKTKQEI
B21: cdr2 211-219 LERQKRVTM (peptide)
peptide: LERQKRVTM
B22: cdr2 196-204 EHLKKTVTM (peptide)
peptide: EHLKKTVTM

The target of one assay is T1, HLA-A*0201 (human).
T1 construct: also called HLA-A2.1; HLA A2.1
The assay can be described thus: iTopia binding.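 Further: each peptide tested for binding to HLA-A2 molecules immobilized on plates, using a commercial screening kit run per its supplied protocol and reagents.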
For B1, the “binding vs positive control” value was over 30%.
On to B2, for which the “binding vs positive control” value was over 30%.
Same read-out and setting: under B3 stands over 30%.

A further assay deals with T1, HLA-A*0201. The assay can be described thus: iTopia affinity.
On to B1, for which the ED50 was 2.7 µM.
The same measure, in the same setting: next, B2: 7 µM.
Still for that read-out and setting: under B3 stands 8.4 µM.

The target in another assay is T1, HLA-A*0201. Kind of assay: iTopia off-rate.
The molecule B1 registered a t1/2 of 0.55.
Same read-out and setting: next, B2: 0.8; B3: 1.25.

The target in a further assay is HLA-A*0301 (human). The assay can be described thus: iTopia affinity.
Molecule B4 displayed an ED50 of 11 µM.
Still for that read-out and setting: under B5 stands 15 µM.
The molecule B6 registered an ED50 of 19 µM.
Still for that read-out and setting: under B7 stands 15 µM.
Still for that read-out and setting: next, B8: 7.8 µM; B9: 19 µM.
Same read-out and setting: next, B10: 25 µM.
Molecule B11 came in with an ED50 of 25 µM.
Still for that read-out and setting: under B12 stands 58 µM.
On the same count and under the same terms, next, B13: 13 µM; B14: 18 µM.
Turning to B15, the ED50 was 26 µM.

The next assay addresses HLA-A*0301 (human). The assay can be described thus: iTopia off-rate.
B4 had a t1/2 of 0.88.
Same read-out and setting: next, B5: 0.92; B6: 0.99.
For the molecule B7, the t1/2 turned out to be 1.12.
Still for that read-out and setting: next, B8: 1.64.
B9: the t1/2 was 1.49.
On the same count and under the same terms, under B10 stands 0.36; under B11, 0.97.
On the same count and under the same terms, under B12 stands 3.69; under B13, 5.82; under B14, 2.55.
The same measure, in the same setting: next, B15: 1.53.

For the next assay, the target named is HLA-A*1101 (human). Kind of assay: iTopia affinity.
B4 yielded an ED50 of 2.1 µM.
Molecule B5 had an ED50 of 27 µM.
On the same count and under the same terms, under B6 stands 11 µM.
The same measure, in the same setting: next, B7: 7.9 µM; B8: 2 µM; B9: 26 µM.
Molecule B10 displayed an ED50 of 8.8 µM.
On the same count and under the same terms, under B11 stands 5.7 µM; under B12, 11 µM; under B13, 7 µM.
On the same count and under the same terms, under B14 stands 4.6 µM.
Still for that read-out and setting: under B15 stands 4.8 µM.

For another assay, the target named is HLA-A*1101 (human). Kind of assay: iTopia off-rate.
Regarding B4, the t1/2 was 0.74.
As for B5, the t1/2 amounted to 0.2.
On the same count and under the same terms, next, B6: 0.56; B7: 1.
Same read-out and setting: under B8 stands 2.8; under B9, 0.35.
Still for that read-out and setting: next, B10: 0.7.
The molecule B11 registered a t1/2 of 1.4.
Molecule B12 had a t1/2 of 3.85.
Still for that read-out and setting: next, B13: 3.74; B14: 1.5.
B15 showed a t1/2 of 4.59.

The target of another assay is HLA-A*2402 (human). Kind of assay: iTopia affinity.
B1 showed an ED50 of 3.3 µM.
Same read-out and setting: next, B16: 56 µM; B10: 6.2 µM; B17: 0.16 µM.
On the same count and under the same terms, next, B2: 10 µM.

In a further assay the target is HLA-A*2402 (human). The assay can be described thus: iTopia off-rate.
As for B1, the t1/2 amounted to 0.23.
Same read-out and setting: next, B16: 1.39.
The same measure, in the same setting: under B10 stands 1.65; under B17, 1.11.
Same read-out and setting: next, B2: 0.38.

In a further assay the target is HLA-B*0702 (human). The assay can be described thus: iTopia affinity.
B18 showed an ED50 of 5.7 µM.
In the case of B17, the ED50 came out at 23 µM.
Take B19: the ED50 is 100 µM.

In the next assay the target is HLA-B*0702 (human). The assay can be described thus: iTopia off-rate.
In the case of B18, the t1/2 turned out to be 0.22.
Same read-out and setting: next, B17: 0.15.
The same measure, in the same setting: under B19 stands 1.59.

In a further assay the target is HLA-B*0801 (human). The assay can be described thus: iTopia affinity.
Take B20: the ED50 came out at 240 µM.
As for B1, the ED50 was found to be 340 µM.
On the same count and under the same terms, next, B21: 140 µM; B18: 18 µM.
In the case of B16, the ED50 worked out at 360 µM.
The molecule B22 returned an ED50 of 130 µM.
On the same count and under the same terms, under B17 stands 26 µM; under B19, 15 µM; under B2, 84 µM.
Take B3: the ED50 came to 280 µM.

The target in the next assay is T1, HLA-A*0201. The assay can be described thus: iTopia net score.
With B1, the iScore is 0.132.
The same measure, in the same setting: under B2 stands 0.107; under B3, 0.139.

The next assay addresses HLA-A*0301 (human). Kind of assay: iTopia net score.
Take B4: the iScore came out at 0.14.
On the same count and under the same terms, next, B5: 0.122; B6: 0.087.
On the same count and under the same terms, next, B7: 0.086; B8: 0.258; B9: 0.147.
B10 yielded an iScore of 0.048.
On the same count and under the same terms, under B11 stands 0.075; under B12, 0.147.
As to B13, the iScore stood at 0.231.
Still for that read-out and setting: next, B14: 0.279; B15: 0.128.

For another assay, the target named is HLA-A*1101 (human). The assay can be described thus: iTopia net score.
B4 registered an iScore of 0.283.
On the same count and under the same terms, next, B5: 0.038.
On to B6, for which the iScore was 0.118.
Still for that read-out and setting: next, B7: 0.194.
Still for that read-out and setting: under B8 stands 0.633; under B9, 0.063.
Still for that read-out and setting: next, B10: 0.146; B11: 0.271.
Turning to B12, the iScore is 0.396.
Still for that read-out and setting: next, B13: 0.392; B14: 0.343; B15: 0.558.

In another assay the target is HLA-A*2402 (human). The assay can be described thus: iTopia net score.
Take B1: the iScore is 0.095.
The same measure, in the same setting: next, B16: 0.08; B10: 0.165.
B17 showed an iScore of 0.611.
On the same count and under the same terms, next, B2: 0.076.

In a further assay the target is HLA-B*0702 (human). Kind of assay: iTopia net score.
With B18, the iScore was determined as 0.082.
Still for that read-out and setting: under B17 stands 0.033; under B19, 0.031.

Another assay deals with HLA-B*0801 (human). Kind of assay: iTopia net score.
B20 gave an iScore of 0.054.
Same read-out and setting: next, B1: 0.037; B21: 0.037; B18: 0.085.
B16 gave an iScore of 0.045.
Still for that read-out and setting: next, B22: 0.065; B17: 0.066; B19: 0.16.
Regarding B2, the iScore turned out to be 0.099.
The same measure, in the same setting: under B3 stands 0.046.
